The text below walks through data of US20180282373.

This series deals with purified recombinant full-length WDR5, P61964.

B1: GST-tagged SETd1B Win-SET domain, Setd1B(1727-1966), R1748A (protein)
chain: LSSAKKKKRDDGIREHVTGCAASEGFYTIDKKDKLRYLNSSRASTDEPPADTQGMSIPAQPHASTRAGSERRSEQRRLLSSFTGSCDSDLLKFNQLKFRKKKLKFCKSHIHDWGLFAMEPIAADEMVIEYVGQNIRQVIADMREKRYEDEGIGSSYMFRVDHDTIIDATKCGNFARFINHSCNPNCYAKVITVESQKKIVIYSKQHINVNEEITYDYKFPIEDVKIPCLCGSENCRGTLN
Regarding B1, the “core complex methyltransferase activity, H3K4me1 and H3K4me2 peptides, mutant against wild type” value is “showed similar amounts of activity compared to that of their wild-type counterparts”.

B2: GST-tagged MLL3 Win-SET domain, MLL3(4689-4911), R4710A (protein)
chain: FRYGRNPLMELPLAVNPTGCAASEPKMSAHVKRFVLRPHTLNSTSTSKSFQSTVTGELNAPYSKQFVHSKSSQYRKMKTEWKSNVYLARSRIQGLGLYAARDIEKHTMVIEYIGTIIRNEVANRKEKLYESQNRGVYMFRMDNDHVIDATLTGGPARYINHSCAPNCVAEVVTFERGHKIIISSSRRIQKGEELCYDYKFDFEDDQHKIPCHCGAVNCRKWMN
Consider B2, for which the “core complex methyltransferase activity, H3K4me0 peptide, mutant against wild type” value is “approximately 2-fold more activity than the wild-type MLL3 core complex”.
